Assay results reported in article PMC5815136.

Key:
Ct_Rio2 = target: T1, Ct_Rio2 (Chaetomium thermophilum? (given only as …, UniProt L0BC08 1-396)); experiment: EMSA
T1 sequence: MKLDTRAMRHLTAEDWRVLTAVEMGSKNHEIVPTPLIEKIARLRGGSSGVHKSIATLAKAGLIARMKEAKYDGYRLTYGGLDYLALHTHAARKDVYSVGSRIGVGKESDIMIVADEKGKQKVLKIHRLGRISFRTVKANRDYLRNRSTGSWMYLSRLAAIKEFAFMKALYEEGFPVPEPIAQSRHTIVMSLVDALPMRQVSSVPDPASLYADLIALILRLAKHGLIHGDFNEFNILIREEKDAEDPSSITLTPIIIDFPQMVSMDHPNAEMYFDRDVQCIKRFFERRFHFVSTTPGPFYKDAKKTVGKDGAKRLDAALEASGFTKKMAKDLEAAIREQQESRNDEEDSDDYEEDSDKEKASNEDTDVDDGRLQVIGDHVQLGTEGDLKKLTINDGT

Ct_Rio2 K106A = target: T2, Ct_Rio2 K106A (Chaetomium thermophilum? (given only as …, UniProt L0BC08 1-396, K106A)); experiment: EMSA
T2 sequence: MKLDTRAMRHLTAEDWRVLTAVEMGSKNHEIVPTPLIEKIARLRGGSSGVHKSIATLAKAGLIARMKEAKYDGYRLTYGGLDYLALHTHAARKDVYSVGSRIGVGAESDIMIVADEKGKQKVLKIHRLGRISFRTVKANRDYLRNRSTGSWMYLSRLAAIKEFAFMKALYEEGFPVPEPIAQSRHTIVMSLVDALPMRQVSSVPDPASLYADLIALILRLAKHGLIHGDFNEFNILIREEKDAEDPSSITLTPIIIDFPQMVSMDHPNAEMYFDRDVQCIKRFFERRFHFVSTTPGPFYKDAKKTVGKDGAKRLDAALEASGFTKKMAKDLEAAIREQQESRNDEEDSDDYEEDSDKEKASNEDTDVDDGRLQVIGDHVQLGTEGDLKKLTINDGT

B1: h31* (h31-Stab) (structured_RNA)
RNA: GGGUUAAUUUGACUCAACACAAAGAAA
binding result (Ct_Rio2): binds | binding result (Ct_Rio2 K106A): binds

B2: h31 (structured_RNA)
RNA: GGGUUAAUUUGACUCAACACGGGGAAA
binding result (Ct_Rio2): binds
